Laboratory results published in paper PMC2645917 (2008).

Target: F29 7-36 (Homo sapiens, UniProt P01275, Ile29 replaced by hexafluoroleucine, C-terminal amide)
Experiment: competition binding with [125I]-Ex

IC50: 13.4 nM
B1: GLP-1 receptor (protein)
chain: RPQGATVSLWETVQKWREYRRQCQRSLTEDPPPATDLFCNRTFDEYACWPDGEPGSFVNVSCPWYLPWASSVPQGHVYRFCTAEGLWLQKDNSSLPWRDLSECEESKRGERSSPEEQLLFLYIIYTVGYALSFSALVIASAILLGFRHLHCTRNYIHLNLFASFILRALSVFIKDAALKWMYSTAAQQHQWDGLLSYQDSLSCRLVFLLMQYCVAANYYWLLVEGVYLYTLLAFSVLSEQWIFRLYVSIGWGVPLLFVVPWGIVKYLYEDEGCWTRNSNMNYWLIIRLPILFAIGVNFLIFVRVICIVVSKLKANLMCKTDIKCRLAKSTLTLIPLLGTHEVIFAFVMDEHARGTLRFIKLFTELSFTSFQGLMVAILYCFVNNEVQLEFRKSWERWRLEHLHIQRDSSMKPLKCPTSSLSSGATAGSSMYTATCQASCS
